Laboratory results: patent US20100009390A1, “MUTANT ANTIBODIES WITH HIGH AFFINITY FOR EGFR” (THE REGENTS OF THE UNIVERSITY OF CALIFORNIA, priority 2008, published 2010)
“Also recorded” adds a separate entry of the source. Like-named read-outs stand apart in the source and are kept apart here.

Columns and labels:
MDAMB453 cells = assay: Binding specificity of scFv by flow cytometry; conditions: MDAMB453, only 10^4 EGFR/cell
[1] = target: T1, EGFR-expressing A431 cells (Homo sapiens, UniProt P00533); conditions: Heitner et al. (2001); read-out: KD of C10 scFv previously measured on EGFR-expressing tumor cells; cited from earlier work
T1 construct: host or cells: A431 cells

[2] = system: EGFR-over-expressing MDAMB468 cells; assay: Internalization/uptake of anti-EGFR immunoliposomes (microscopy, flow cytometry); type: cell-based, Human
Method: (§1) scFv-mediated internalization of fluorescent immunoliposomes was analyzed and quantified by microscopy and flow cytometry. C10 scFv fragments were inserted into liposomes at ratios of 5, 10, 15, 30 and 60 μg scFv/μmol phospholipid (Mamot et al. (2003) Cancer Res. 63: 3154-3161). scFv densities of 16, 32, 48, 96 and 192 scFv/liposome were calculated on the basis of the molecular mass of scFv (26 kDa) and the approximate number of phospholipid molecules/liposome (80,000). The conjugation technology for scFv to Mal-PEG-DSPE is remarkably reproducible with an efficiency of 77.3(±3.1) % (range 75-82% over six batches) (Nellis et al. (2005) Biotechnol. Prog. 21: 205-220). […] For microscopy studies, 150,000 cells were incubated with 50 μM PL of untargeted and EGFR-targeted ILs labeled with DiIC18(3)-DS in a 12-well plate for 2 h at 37° C., followed by washing with PBS and further incubation at 37° C. for 2 h. The cells were then analyzed by using an inverted fluorescence microscope (Nikon Eclipse, TE300) with a 540/25 nm band-pass filter for excitation and a long-pass filter at 565 nm for emission. For quantitative uptake of immunoliposomes, 250,000 cells were incubated with EGFR-targeted ILs labeled with ADS645 in a six-well plate for 2 h at 37° C., washed with PBS, removed in trypsin solution and fluorescence quantified with a FACSAria instrument (Beckton Dickinson). To determine the effect of EGF competition on internalization of EGFR-targeted ILs, IL internalization was quantified as described above, except that 50 μM targeted ILs and cells were incubated with EGF concentrations ranging from 0.2-25 nM. ANOVA (analysis of variance) was used to analyze the statistical differences of the quantified uptake.

[3] = target: T2, MDAMB468 cells expressing EGFR (Homo sapiens, UniProt P00533); assay: Immunoliposome binding affinity for cells expressing EGFR (flow cytometry); conditions: read-out: Apparent KD of immunoliposomes
T2 construct: Human breast cancer MDAMB468 cells expressing EGFR; endogenous in cells; host or cells: MDAMB468 breast carcinoma cells
Method: Human breast cancer MDAMB468 cells expressing EGFR were grown to 80-90% confluence in L15 medium supplemented with 10% FBS and harvested by trypsinization. ILs labeled with DiIC18(3)-DS were incubated overnight with 10^4 cells at concentrations of IL ranging from 0.31-2.5 nM. The concentration of IL was converted from the concentration of phospholipid on the basis of the approximate number of phospholipid molecules per liposome (80,000). Cell binding was performed at 4° C. in FACS buffer in adequate volume to ensure a fivefold excess of ILs and that the reaction had come to equilibrium. After two washes with 200 μl of FACS buffer, the amount of cell-bound ILs was quantified by flow cytometry in a FACS LSRII (Becton Dickinson). Data analysis was the same as for the measurement of scFv KD.

parental NR6 cells = assay: Binding specificity of scFv by flow cytometry; conditions: NR6, EGFR negative
Method: (§2) The binding of C10 scFv and C10 mutants to EGFR (vIII) stably transfected NR6M cells and parental NR6 cells was also measured.

[4] = target: T3, EGFR (vIII) stably transfected NR6M cells (Homo sapiens, UniProt P00533, DELINS30-297G); assay: Binding specificity of scFv by flow cytometry
T3 construct: expressed in transfected cells; host or cells: NR6M cells (NR6 stably transfected with EGFR (vIII)), gift of Dr Daryl D Bigner
Method: as §2

MDAMB468 cells = assay: Binding specificity of scFv by flow cytometry; parameters: species or system Human; conditions: MDAMB468, 1×10^6-3×10^6 EGFR/cell
MDAMB231 cells = assay: Uptake of EGFR immunoliposomes into cells of lower EGFR density; type: cell-based, human; conditions: all scFv densities studied; 480,000 EGFR/cell
Method: as §1
To determine the impact of receptor density on IL uptake, we measured the uptake of the different ILs into MDAMB231 cells which express 480,000 EGFR/cell as determined by flow cytometry using Quantum Simply Cellular anti-Human IgG beads (Bangs Laboratories Inc.). […] Uptake into MDAMB231 cells increased with increasing scFv density, reaching a plateau at an IL scFv density of 74 scFv/IL for P2/4 scFv and at 37 scFv/IL for 2224 scFv (FIG. 6C).

biotinylated EGFR-ECD = target: T4, biotinylated EGFR-ECD (Homo sapiens, UniProt P00533); assay: Yeast-displayed scFv affinity for biotinylated EGFR-ECD by flow cytometry; type: binding; conditions: concentrations as high as 8 μM
T4 construct: Recombinant EGFR-ECD was expressed in HEK293 cells; biotin (chemical label, NHS-sulfo-LC-biotin on amines); made in house; host or cells: HEK293 cells
Method: Generally, six to eight different concentrations of biotinylated EGFR were used to span a range of concentrations from ten times above to ten times below the KD. Incubation volumes, times and yeast numbers were chosen to ensure that the studies were done in at least fivefold antigen excess and that equilibrium had been achieved (Razai et al. (2005) J. Mol. Biol. 351: 158-169). For anti-EGFR scFv, […] in 50 μl were incubated with biotinylated EGFR-ECD for 1 h at room temperature. […] Only yeast displaying scFv (as determined by binding of SV5 mAb) were gated for affinity measurements.

A431 cells = target: T5, A431 cells (Homo sapiens, UniProt P00533); assay: Binding specificity of scFv by flow cytometry; conditions: A431, 1×10^6-3×10^6 EGFR/cell
T5 construct: endogenous in cells; host or cells: A431 cells

B1: C10: parental (wild-type) internalizing anti-EGFR human scFv from a non-immune phage antibody library; SEQ ID NO:1 (protein)
scFv: EVQLVQSGAEVKKPGSSVKVSCKASGGTFSSYAISWVRQAPGQGLEWMGGIIPIFGTANYAQKFQGRVTITADESTSTAYMELSSLRSEDTAVYYCAREEGPYCSSTSCYGAFDIWGQGTLVTVSS
modifications: Variable chain of single chain antibody.
MDAMB453 cells
  scFv binding/staining of cells: did not stain
[1]
  Kd: 217 nM
[2]; 74 scFv/liposome, MDAMB468
  endocytosis of ILs by fluorescence microscopy: endocytosed efficiently
[2]; scFv densities of 74 scFv/liposome or less
  IL uptake compared to ILs from higher affinity scFv: less uptake
[3]; 74 scFv/liposome
  Kd: 1.75 nM
[3]; 148 scFv/liposome
  Kd: 0.36 nM
Parental NR6 cells
  scFv binding/staining of cells: minimal binding; also recorded: did not stain
[4]
  scFv binding/staining of cells: strong staining; also recorded: stained
MDAMB468 cells
  scFv binding/staining of cells: stained
MDAMB231 cells
  IL uptake into MDAMB231 cells compared to A431 cells: significantly less uptake
Biotinylated EGFR-ECD
  binding of yeast-displayed scFv to biotinylated recombinant EGFR: minimal binding
A431 cells
  scFv binding/staining of cells: stained
